Laboratory results from patent US9657104B2, “Anti-c-Met/anti-EGFR bispecific antibodies” (Samsung Electronics Co., Ltd., priority 2013, dated 2017).

System: c-Met and EGFR
Assay: Co-localization of c-Met and EGFR by confocal microscopy
Format: cell-based
Details: 1 μg/mL, 37° C., 4 hours; MKN45 and EBC1 cell lines; FIGS. 7 and 8
Procedure: The MKN45 cell line and the EBC1 cell line were prepared in amounts of 4×10^4 cell/well, respectively, to which L3-1Y-IgG2 prepared in Reference Example 1, anti-EGFR scFv prepared in Reference Example 2, and the anti-c-Met/anti-EGFR bispecific antibody ME03S prepared in Example 1 were each added individually or in combination to result in the concentration of 1 μg/mL per well (in case of the combination treatment, to result in 1 μg/mL each) and treated at 37° C. for 4 hours. The cells were treated with 4% (v/v) formaldehyde for 15 min to immobilize them on a plate, and washed three times with PBS. Thereafter, the cells were treated with a blocking buffer (0.5% triton x-100 and 5% donkey serum) at a room temperature for one hour and then treated with a 1:100 dilution of the first antibodies (c-Met primary antibody; #FAB3582A, R&D systems, EGFR primary antibody; #5616, Cell signaling) against c-Met and EGFR, respectively in amounts of 100 μA at 4° C. for 15 hours. After the cells were washed three time with PBS, they were treated with a 1:2000 dilution of the secondary antibody (#A21433, Invitrogen) in an amount of 100 μA at a room temperature for 1 hour and washed three times with PBS to prepare a plate with a mounting medium (#H-1200, Vector).

B1: anti-EGFR scFv: scFv with heavy chain variable region SEQ ID NO: 109, (GGGGS)3 linker, light chain variable region SEQ ID NO: 111 (antibody, V domains shown)
VH: QVQLVQSGAEVKKPGSSVKVSCKASGFTFTDYKIHWVRQAPGQGLEWMGYFNPNSGYSTYAQKFQGRVTITADKSTSTAYMELSSLRSEDTAVYYCARLSPGGYYVMDAWGQGTTVTVSS
VL: DIQMTQSPSSLSASVGDRVTITCRASQGINNYLNWYQQKPGKAPKRLIYNTNNLQTGVPSRFSGSGSGTEFTLTISSLQPEDFATYYCLQHNSFPTFGQGTKLEIKRT
modifications: (GGGGS)3 linker; Synthetic (heavy-chain variable region of anti-EGFR antibody); Synthetic (light-chain variable region of anti-EGFR antibody)
- location of c-Met and EGFR in the cells: EGFR still locates on cell membranes
